The values below come from patent publication US20200246441A1, “COMPOSITIONS AND METHODS FOR AUTOIMMUNE DISEASE TREATMENT” (AMRITA VISHWA VIDYAPEETHAM, priority 2016, published 2020).

For one assay, the system named is EAE. Particulars: administered as free peptide; cited from earlier work.
The test system of assay [1] is C57Bl/6 EAE mice. Description: EAE induction and clinical scoring, MOG35-55-induced EAE in C57Bl/6 mice (chronic progressive model). The format is in vivo, mouse. Particulars: for Disease incidence / Mortality: fraction of total; for Cumulative score / Day disease onset / Maximum score / Score at termination: mean ± SEM.
Assay [2] deals with C57Bl/6 EAE mice. Description: Histological analysis of CNS tissue of C57Bl/6 EAE mice. The format is in vivo, mouse. More on the design: key to Axonal damage: 0 = no axonal pathology, 3 = severe axonal pathology; key to Demyelination score: 0 = no demyelination, 3 = severe demyelination. To be noted: mean ± SEM. The protocol: (§1) For histological analysis of CNS tissue, the brain and spinal cord were dissected from mice then fixed in 10% formalin (Sigma) for 24-48 h. Tissue was then processed and embedded in paraffin wax. Serial sections (5 μm) were cut from paraffin-embedded tissues and stained with hematoxylin and eosin, luxol fast blue and Bielschowsky silver impregnation to assess inflammation, demyelination and axonal damage, respectively. Sections were scored blind for semi-quantitative histological analysis of inflammation as follows: 0, no inflammation: 1, cellular infiltrate only in the perivascular areas and meninges; 2, mild cellular infiltrate in parenchyma: 3, moderate cellular infiltrate in parenchyma; 4, severe cellular infiltrate in parenchyma. Demyelination and axonal pathology were assessed by pale staining and scored blind as follows: 0, no demyelination/axonal pathology: 1, mild demyelination/axonal pathology; 2, moderate demyelination-axonal pathology; 3, severe demyelination/axonal pathology.

For assay [3], the system named is MOG-specific T-cells (spleen cells from MOG T-cell receptor transgenic (2D2) mice). Description: Proliferation assay, 3H-thymidine incorporation. Particulars: free peptide or 500 nm silica NPs, up to 8 ug/ml. The format is cell-based, mouse. As for the experimental part: Spleens were dissected from MOG T-cell receptor transgenic mice expressing the transgenic V3.2α/Vβ11 T-cell receptor specific for MOG35-55 peptide ([…]) in the context of 1-A^b. Single cell suspensions were prepared in complete RPMI medium containing 10% heat inactivated FBS, 2 mM L-glutamine, 100 U/ml penicillin, 100 μg/ml streptomycin, 50 μM 2-mercaptoethanol and 1 mM sodium pyruvate (Sigma). Following red blood cell lysis, splenocytes were seeded in triplicate in 96-well, flat bottom microtiter plates (Nunc) at a concentration of 2.5×10^5 cells per well. Splenocytes were cultured in medium alone or in the presence of increasing doses of MOG35-55 or nanoparticles. Cells were incubated at 37° C. for 72 hr with the addition of 1 μCi/well [3H]-thymidine (Perkin Elmer) for the last 18 hr of culture. Cells were harvested onto filter mats (Perkin Elmer) and incorporated radioactive nucleic acids counted using a Top Count NXT Scintillation Counter (Packard Biosciences).

The subject of assay [4] is NOD/Lt EAE mice. As to the kind of experiment: Histological analysis of CNS tissue of NOD/Lt EAE mice. Set-up: key to Axonal damage: 0 = no axonal pathology, 3 = severe axonal pathology; key to Demyelination score: 0 = no demyelination, 3 = severe demyelination. The format is in vivo, mouse. To be noted: 200 nm silica peptide nanoparticles, mean ± SEM. The protocol: as §1

The subject of assay [5] is NOD/Lt EAE mice. As to the kind of experiment: EAE induction and clinical scoring, recombinant mouse MOG-induced EAE in NOD/Lt mice (relapsing remitting model). To be noted: 200 nm silica peptide nanoparticles, NOD/Lt. The format is in vivo.
Where [6] appears, read: 200 nm silica peptide nanoparticles.
Setting [7] is: 500 nm silica peptide nanoparticles.

On to VGWYRSPβFSRVVHLYR [MOG 44βF], for which, in the assay with EAE, the “dosage at which free peptide suppressed EAE” value is 800 µg.

B1: Ova: control silica nanoparticles (500 nm or 200 nm) coated with ovalbumin (conjugate)
chain: GSIGAASMEFCFDVFKELKVHHANENIFYCPIAIMSALAMVYLGAKDSTRTQINKVVRFDKLPGFGDSIEAQCGTSVNVHSSLRDILNQITKPNDVYSFSLASRLYAEERYPILPEYLQCVKELYRGGLEPINFQTAADQARELINSWVESQTNGIIRNVLQPSSVDSQTAMVLVNAIVFKGLWEKAFKDEDTQAMPFRVTEQESKPVQMMYQIGLFRVASMASEKMKILELPFASGTMSMLVLLPDEVSGLEQLESIINFEKLTEWTSSNVMEERKIKVYLPRMKMEEKYNLTSVLMAMGITDVFSSSANLSGISSAESLKISQAVHAAHAEINEAGREVVGSAEAGVDAASVSEEFRADHPFLFCIKHIATNAVLFFGRCVSP
On to B1, for which, in the assay with C57Bl/6 EAE mice [1] (setting [6]), the Disease incidence was 5/5, the Mortality is reported as 0/5, the Cumulative score worked out at 62.00 ± 4.987 and the Day disease onset is recorded as 10.60 ± 0.9274. In the assay with C57Bl/6 EAE mice [1] (setting [6]), this molecule had a Maximum score of 3.3 ± 0.2000 and a Score at termination of 2.60 ± 0.3317. For the same molecule, the Disease incidence in the assay with C57Bl/6 EAE mice [1] (500 nm silica peptide nanoparticles, i.v. day -7 and -1) is given as 4/4. Moreover, in the assay with C57Bl/6 EAE mice [1] (setting [7]), the Mortality is recorded as 1/4, the Cumulative score stood at 69.38 ± 11.77, the Day disease onset worked out at 10.75 ± 0.8539 and the Maximum score stood at 3.625 ± 0.4732. In the assay with C57Bl/6 EAE mice [1] (setting [7]), the Score at termination was 2.75 ± 0.7773. In addition, in the assay on C57Bl/6 EAE mice [2] (setting [6]), the Axonal damage was determined as 2.50 ± 0.2236, the Demyelination score is reported as 2.40 ± 0.3674 and the Inflammation score was 2.80 ± 0.4899. In the assay with C57Bl/6 EAE mice [2] (setting [7]), this molecule had an Axonal damage of 2.333 ± 0.1667, a Demyelination score of 2.333 ± 0.1667 and an Inflammation score of 2.833 ± 0.1667. In assay [3], the “T-cell proliferation (proliferative response)” value is recorded as “not capable of stimulating T-cell proliferation”. Besides, in the assay on NOD/Lt EAE mice [4], the Axonal damage turned out to be 2.60 ± 0.1871, the Demyelination score worked out at 2.60 ± 0.1871 and the Inflammation score was determined as 4.00 ± 0.00. Moreover, in the assay on NOD/Lt EAE mice [5] (fraction of total), the Disease incidence is reported as 6/6 and the Mortality is listed as 1/6. Besides, in the assay on NOD/Lt EAE mice [5] (mean ± SEM), the Cumulative score amounted to 46.75 ± 4.656, the Day disease onset turned out to be 14.17 ± 1.327, the Maximum score was found to be 3.583 ± 0.3005 and the Score at termination is reported as 3.167 ± 0.4014.
